Experimental data as given in patent US20120121587A1 (Chugai, published 2012).

T1: Human recombinant AXL-FND1 (GST-FND1), from pET-41b(+) (human, UniProt P30530 225-331)
T1 construct: Expressed in E. coli, purified on Glutathione Sepharose; analyte in all Biacore measurements; GST put first by the usual layout of pET-41; not shown: GST-tag of vector pET-41b(+) (Novagen)
T1 sequence (looked up): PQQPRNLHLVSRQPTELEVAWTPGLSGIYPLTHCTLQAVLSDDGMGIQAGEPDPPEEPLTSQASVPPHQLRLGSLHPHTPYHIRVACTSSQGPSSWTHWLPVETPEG


Target: T1, Human recombinant AXL-FND1 (GST-FND1), …
Experiment: SPR (Biacore T100): antibody captured on Protein A, GST-FND1 as analyte
Procedure: Kinetic analyses of antigen-antibody reactions of humanized AXL antibodies were carried out using Biacore T100 (BIACORE). rec-Protein A (Zymed) (hereinafter, Protein A) was immobilized onto a sensor chip, various antibodies were bound to it, then an antigen as the analyte was flushed to measure the antibody-antigen interaction. Human recombinant AXL-FND1 (prepared in 2-2; hereinafter referred to as GST-FND1) prepared at various concentrations was used as the antigen. From the sensorgrams obtained through the measurements, kinetic parameters, namely binding rate constant kₐ (1/Ms) and dissociation rate constant kd (1/s), were calculated, and Kd (M) was calculated based on these values. Biacore T100 Evaluation Software (BIACORE) was used to calculate each of the parameters.
The sensor chips were produced by immobilizing approximately 3000 RU of Protein A onto CM5 (BIACORE) by amine coupling. Using the produced sensor chip, kinetic analyses were carried out on the interaction between the Protein A-bound antibodies and GST-FND1. HBS-EP+ was used as the running buffer, and the flow rate was set to 30 μL/min. Each antibody was prepared at 1 μg/mL using the running buffer, and was subjected to binding with Protein A for two minutes. GST-FND1 as the analyte was prepared at 0.5 and 2.0 μg/mL using HBS-EP+. Measurements were carried out by first binding the various humanized AXL antibodies, chimeric AXL antibodies, or mouse AXL antibodies of interest to Protein A, then applying an analyte solution to them for a two-minute interaction, and then switching to HBS-EP+ (BIACORE) for a two-minute measurement of the dissociation phase. After completion of measurement of the dissociation phase, 30 μL of 10 mM glycine-HCl (pH 2.0) was used for washing to regenerate the sensor chip. Such binding, dissociation, and regeneration were defined as one cycle of analysis. All experiments were performed at 25° C.
Affinity evaluation of each of the variants by Biacore was carried out by the method of Example 2.

Row | Kd | Binder
1 | 2.7 nM | H30/L0 (antibody, human IgG1, kappa) heavy: not shown light: DVVMTQSPLSLPVTLGQPASISCRSSQNIVHTNGNTYLEWYQQKPGKAPELLIYKVSNRFSGVPDRFSGSGSGTDFTLKISRVEAEDVGVYYCFQGSHIPFTFGQGTKLEIKRTVAAPSVFIFPPSDEQLKSGTASVVCLLNNFYPREAKVQWKVDNALQSGNSQESVTEQDSKDSTYSLSSTLTLSKADYEKHKVYACEVTHQGLSSPVTKSFNRGEC
2 | 5.94 nM | H34/L0 (antibody, human IgG1, kappa, V domains shown) VH: QVTLKESGPVLVKPTETLTLTCTVSGFSLSKFGVDWVRQAPGKGLEWMGVIWGGGSTNYNSALKSRLTISKDNSKSQVVLTMTNMDPVDTATYYCAGEGSKYGAWFAYWGQGTLVTVSS VL: DVVMTQSPLSLPVTLGQPASISCRSSQNIVHTNGNTYLEWYQQKPGKAPELLIYKVSNRFSGVPDRFSGSGSGTDFTLKISRVEAEDVGVYYCFQGSHIPFTFGQGTKLEIKR
3 | 2.03 nM | H36/L1 (antibody, human IgG1, kappa) heavy: not shown light: DVVMTQSPLSLPVTLGQPASISCQSSQNIVHTNGNTYLEWYQQKPGKAPELLIYKVSNRFSGVPDRFSGSGSGTDFTLKISRVEAEDVGVYYCFQGSHIPFTFGQGTKLEIKRTVAAPSVFIFPPSDEQLKSGTASVVCLLNNFYPREAKVQWKVDNALQSGNSQESVTEQDSKDSTYSLSSTLTLSKADYEKHKVYACEVTHQGLSSPVTKSFNRGEC
4 | 3.65 nM | H35/L0 (antibody, human IgG1, kappa, V domains shown) VH: QVTLKESGPVLVKPTETLTLTCTVSGFSLSRFGVDWVRQAPGKGLEWMGVIWGGGSTNYNSALKSRLTISKDNSKSQVVLTMTNMDPVDTATYYCAGEGSKYGAWFAYWGQGTLVTVSS VL: DVVMTQSPLSLPVTLGQPASISCRSSQNIVHTNGNTYLEWYQQKPGKAPELLIYKVSNRFSGVPDRFSGSGSGTDFTLKISRVEAEDVGVYYCFQGSHIPFTFGQGTKLEIKR
5 | 3.02 nM | H33/L13 (antibody, human IgG1, kappa, V domains shown) VH: QVTLKESGPVLVKPTETLTLTCTVSGFSLSSFGVDWVRQAPGQGLEWMGVIWGGGSTNYNEALQDRLTISKDNSKSQVVLTMTNMDPVDTATYYCAGEGSKYGAWFAYWGEGTLVTVSS VL: DVVMTQSPLSLPVTLGQPASISCQSSQNIVHTNGNTYLEWYQQKPGQAPELLIYKVSNRFSGVPDRFSGSGSGTDFTLKISRVEAEDVGVYYCFQGSHIPFTFGQGTKVEIER
6 | 3.03 nM | H31/L10 (antibody, human IgG1, kappa) heavy: not shown light: DVVMTQSPLSLPVTLGQPASISCRSSQNIVHTNGNTYLEWYQQKPGKAPELLIYKVSNRFSGVPDRFSGSGSGTDFTLKISRVEAEDVGVYYCFQGSHIPFTFGQGTKVEIERTVAAPSVFIFPPSDEQLKSGTASVVCLLNNFYPREAKVQWKVDNALQSGNSQESVTEQDSKDSTYSLSSTLTLSKADYEKHKVYACEVTHQGLSSPVTKSFNRGEC
7 | 2.8 nM | H32/L10 (antibody, human IgG1, kappa) heavy: not shown light: DVVMTQSPLSLPVTLGQPASISCRSSQNIVHTNGNTYLEWYQQKPGKAPELLIYKVSNRFSGVPDRFSGSGSGTDFTLKISRVEAEDVGVYYCFQGSHIPFTFGQGTKVEIERTVAAPSVFIFPPSDEQLKSGTASVVCLLNNFYPREAKVQWKVDNALQSGNSQESVTEQDSKDSTYSLSSTLTLSKADYEKHKVYACEVTHQGLSSPVTKSFNRGEC
8 | 2.64 nM | H32/L12 (antibody, human IgG1, kappa) heavy: not shown light: DVVMTQSPLSLPVTLGQPASISCQSSQNIVHTNGNTYLEWYQQKPGEAPELLIYKVSNRFSGVPDRFSGSGSGTDFTLKISRVEAEDVGVYYCFQGSHIPFTFGQGTKVEIERTVAAPSVFIFPPSDEQLKSGTASVVCLLNNFYPREAKVQWKVDNALQSGNSQESVTEQDSKDSTYSLSSTLTLSKADYEKHKVYACEVTHQGLSSPVTKSFNRGEC
9 | 3.05 nM | H31/L11 (antibody, human IgG1, kappa) heavy: not shown light: DVVMTQSPLSLPVTLGQPASISCQSSQNIVHTNGNTYLEWYQQKPGKAPELLIYKVSNRFSGVPDRFSGSGSGTDFTLKISRVEAEDVGVYYCFQGSHIPFTFGQGTKVEIERTVAAPSVFIFPPSDEQLKSGTASVVCLLNNFYPREAKVQWKVDNALQSGNSQESVTEQDSKDSTYSLSSTLTLSKADYEKHKVYACEVTHQGLSSPVTKSFNRGEC
10 | 3.14 nM | H31/L12 (antibody, human IgG1, kappa) heavy: not shown light: DVVMTQSPLSLPVTLGQPASISCQSSQNIVHTNGNTYLEWYQQKPGEAPELLIYKVSNRFSGVPDRFSGSGSGTDFTLKISRVEAEDVGVYYCFQGSHIPFTFGQGTKVEIERTVAAPSVFIFPPSDEQLKSGTASVVCLLNNFYPREAKVQWKVDNALQSGNSQESVTEQDSKDSTYSLSSTLTLSKADYEKHKVYACEVTHQGLSSPVTKSFNRGEC
11 | 2.74 nM | H32/L13 (antibody, human IgG1, kappa) heavy: not shown light: DVVMTQSPLSLPVTLGQPASISCQSSQNIVHTNGNTYLEWYQQKPGQAPELLIYKVSNRFSGVPDRFSGSGSGTDFTLKISRVEAEDVGVYYCFQGSHIPFTFGQGTKVEIERTVAAPSVFIFPPSDEQLKSGTASVVCLLNNFYPREAKVQWKVDNALQSGNSQESVTEQDSKDSTYSLSSTLTLSKADYEKHKVYACEVTHQGLSSPVTKSFNRGEC
12 | 3.06 nM | H33/L11 (antibody, human IgG1, kappa) heavy: not shown light: DVVMTQSPLSLPVTLGQPASISCQSSQNIVHTNGNTYLEWYQQKPGKAPELLIYKVSNRFSGVPDRFSGSGSGTDFTLKISRVEAEDVGVYYCFQGSHIPFTFGQGTKVEIERTVAAPSVFIFPPSDEQLKSGTASVVCLLNNFYPREAKVQWKVDNALQSGNSQESVTEQDSKDSTYSLSSTLTLSKADYEKHKVYACEVTHQGLSSPVTKSFNRGEC
13 | 2.54 nM | H31/L0 (antibody, human IgG1, kappa) heavy: not shown light: DVVMTQSPLSLPVTLGQPASISCRSSQNIVHTNGNTYLEWYQQKPGKAPELLIYKVSNRFSGVPDRFSGSGSGTDFTLKISRVEAEDVGVYYCFQGSHIPFTFGQGTKLEIKRTVAAPSVFIFPPSDEQLKSGTASVVCLLNNFYPREAKVQWKVDNALQSGNSQESVTEQDSKDSTYSLSSTLTLSKADYEKHKVYACEVTHQGLSSPVTKSFNRGEC
14 | 3.04 nM | H33/L0 (antibody, human IgG1, kappa) heavy: not shown light: DVVMTQSPLSLPVTLGQPASISCRSSQNIVHTNGNTYLEWYQQKPGKAPELLIYKVSNRFSGVPDRFSGSGSGTDFTLKISRVEAEDVGVYYCFQGSHIPFTFGQGTKLEIKRTVAAPSVFIFPPSDEQLKSGTASVVCLLNNFYPREAKVQWKVDNALQSGNSQESVTEQDSKDSTYSLSSTLTLSKADYEKHKVYACEVTHQGLSSPVTKSFNRGEC
15 | 2.74 nM | H32/L11 (antibody, human IgG1, kappa) heavy: not shown light: DVVMTQSPLSLPVTLGQPASISCQSSQNIVHTNGNTYLEWYQQKPGKAPELLIYKVSNRFSGVPDRFSGSGSGTDFTLKISRVEAEDVGVYYCFQGSHIPFTFGQGTKVEIERTVAAPSVFIFPPSDEQLKSGTASVVCLLNNFYPREAKVQWKVDNALQSGNSQESVTEQDSKDSTYSLSSTLTLSKADYEKHKVYACEVTHQGLSSPVTKSFNRGEC
16 | 2.82 nM | H32/L0 (antibody, human IgG1, kappa) heavy: not shown light: DVVMTQSPLSLPVTLGQPASISCRSSQNIVHTNGNTYLEWYQQKPGKAPELLIYKVSNRFSGVPDRFSGSGSGTDFTLKISRVEAEDVGVYYCFQGSHIPFTFGQGTKLEIKRTVAAPSVFIFPPSDEQLKSGTASVVCLLNNFYPREAKVQWKVDNALQSGNSQESVTEQDSKDSTYSLSSTLTLSKADYEKHKVYACEVTHQGLSSPVTKSFNRGEC
17 | 3.06 nM | H33/L12 (antibody, human IgG1, kappa) heavy: not shown light: DVVMTQSPLSLPVTLGQPASISCQSSQNIVHTNGNTYLEWYQQKPGEAPELLIYKVSNRFSGVPDRFSGSGSGTDFTLKISRVEAEDVGVYYCFQGSHIPFTFGQGTKVEIERTVAAPSVFIFPPSDEQLKSGTASVVCLLNNFYPREAKVQWKVDNALQSGNSQESVTEQDSKDSTYSLSSTLTLSKADYEKHKVYACEVTHQGLSSPVTKSFNRGEC
18 | 1.96 nM | H36/L0 (antibody, human IgG1, kappa) heavy: not shown light: DVVMTQSPLSLPVTLGQPASISCRSSQNIVHTNGNTYLEWYQQKPGKAPELLIYKVSNRFSGVPDRFSGSGSGTDFTLKISRVEAEDVGVYYCFQGSHIPFTFGQGTKLEIKRTVAAPSVFIFPPSDEQLKSGTASVVCLLNNFYPREAKVQWKVDNALQSGNSQESVTEQDSKDSTYSLSSTLTLSKADYEKHKVYACEVTHQGLSSPVTKSFNRGEC
19 | 1.87 nM | H36/L10 (antibody, human IgG1, kappa) heavy: not shown light: DVVMTQSPLSLPVTLGQPASISCRSSQNIVHTNGNTYLEWYQQKPGKAPELLIYKVSNRFSGVPDRFSGSGSGTDFTLKISRVEAEDVGVYYCFQGSHIPFTFGQGTKVEIERTVAAPSVFIFPPSDEQLKSGTASVVCLLNNFYPREAKVQWKVDNALQSGNSQESVTEQDSKDSTYSLSSTLTLSKADYEKHKVYACEVTHQGLSSPVTKSFNRGEC
